Reference: patent publication US7977317B2, “Compositions and methods for modulating blood-brain barrier transport” (Raptor Pharmaceutical Inc., priority 2001, dated 2011)

Legend:
[1] = target: LRP (Homo sapiens, UniProt Q07954); settings: Tables 1-3; cited from earlier work
[2] = target: Megalin (Homo sapiens, UniProt P98164); settings: Tables 1-3; cited from earlier work
[3] = target: LDL-R (Homo sapiens, UniProt P01130); settings: Tables 1-3; cited from earlier work
[4] = target: VLDL-R (Homo sapiens, UniProt P98155); settings: Tables 1-3; cited from earlier work
[5] = target: T1, ER-2 (Homo sapiens, UniProt Q14114); settings: Tables 1-3; cited from earlier work
T1 sequence (Q14114 33-963): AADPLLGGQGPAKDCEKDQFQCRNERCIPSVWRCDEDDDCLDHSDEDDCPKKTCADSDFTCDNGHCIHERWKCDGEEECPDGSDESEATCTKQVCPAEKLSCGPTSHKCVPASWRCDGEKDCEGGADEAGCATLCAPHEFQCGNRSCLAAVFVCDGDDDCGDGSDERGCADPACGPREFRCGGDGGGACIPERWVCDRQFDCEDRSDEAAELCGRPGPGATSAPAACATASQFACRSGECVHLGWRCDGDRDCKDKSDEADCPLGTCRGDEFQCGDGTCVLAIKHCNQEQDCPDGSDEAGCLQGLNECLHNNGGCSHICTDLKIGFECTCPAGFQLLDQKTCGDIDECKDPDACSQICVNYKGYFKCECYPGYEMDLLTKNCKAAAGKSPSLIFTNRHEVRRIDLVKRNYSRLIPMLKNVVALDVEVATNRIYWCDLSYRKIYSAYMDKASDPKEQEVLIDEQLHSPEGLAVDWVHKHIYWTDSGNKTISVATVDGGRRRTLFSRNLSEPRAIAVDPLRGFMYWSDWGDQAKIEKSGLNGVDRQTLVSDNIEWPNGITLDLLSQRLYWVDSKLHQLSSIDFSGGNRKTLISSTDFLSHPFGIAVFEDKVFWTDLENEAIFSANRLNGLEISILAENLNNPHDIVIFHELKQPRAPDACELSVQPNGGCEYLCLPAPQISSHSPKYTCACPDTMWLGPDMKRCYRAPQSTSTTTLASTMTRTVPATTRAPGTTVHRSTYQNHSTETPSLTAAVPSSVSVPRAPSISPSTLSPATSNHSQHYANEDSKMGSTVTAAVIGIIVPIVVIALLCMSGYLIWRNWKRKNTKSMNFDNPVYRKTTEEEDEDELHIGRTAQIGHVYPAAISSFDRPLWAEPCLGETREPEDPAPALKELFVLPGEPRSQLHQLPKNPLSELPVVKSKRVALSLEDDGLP

[6] = target: LR11 (Homo sapiens, UniProt Q92673); settings: Tables 1-3; cited from earlier work
[7] = system: human brain capillaries; assay: Accumulation/uptake of [125I]-p97 in isolated human brain capillaries; assay type: binding
Experimental: FIG. 5. Accumulation of p97 in human brain capillaries. Accumulation of [^125I]-p97 was measured at 37° C. for 1 h in isolated human brain capillaries (100 μg/assay). The incubation medium contained [^125I]-p97 and a final concentration of 100 nM p97 in Ringer/Hepes solution. The accumulation of [^125I]-p97 was performed in the presence or absence of 5 μm cold-p97, holo-transferrin or lactoferrin. […] The suspension was filtered under vacuum through a […] pore size Millipore filter. The filter was rinsed with 8 ml of stop solution, and the radioactivity was counted. Nonspecific binding of the radioactivity to the capillaries was determined by the addition of the ice-cold stop solution to the capillaries before adding the incubation medium. This value was subtracted from accumulation values obtained following an 1 h incubation. The results were expressed as ng of [^125I]-p97 accumulated per μg of brain capillaries.
FIG. 16 illustrates the identification of a p97 receptor according to ligand specificity. FIG. 16a, Uptake of [^125I]-p97 into human brain capillaries. The uptake of [^125I]-p97 at 100 nM (control) into isolated human brain capillaries was measured for 1 h at 37° C. in the presence of a 50-fold molar excess of unlabelled p97, human holo-transferrin or human lactoferrin. (*[…] Student's t-test (n=5); FIG. 16b, Effect of RAP on [^125I]-p97 transcytosis across BBCEC monolayers. Apical-to-basal transport of [^125I]-p97 was measured in the presence (closed circles) or absence (open circles) of RAP (25 μg/ml) (n=5); FIG. 16c, Inhibition of bovine [^125I]-lactoferrin transport by p97. Transcytosis of bovine [^125I]-lactoferrin (50 nM) was measured in the presence (closed circles) or absence (open circles) of unlabelled p97 (5 μM) at 37° C. (n=3).
A. Isolation of human brain capillaries. Capillaries of the blood-brain barrier were isolated from human brain cortex by a procedure previously described by Dallaire, et al., J. Biol. Chem., 267:22323-22327 (1992) with slight modifications. Human brains were obtained post-mortem. The brain was cleared of meninges, superficial large blood vessels and choroid plexus. All the following procedures were performed at 4° C. The cerebral cortex was homogenized in 5 volumes of Ringer/Hepes solution with a Polytron (Brinkman Instruments, Rexdale, Ontario, Canada). The homogenate was mixed with an equal volume of Dextran T-70 (27 g in 100 ml of Ringer/Hepes). The suspension was centrifuged at 25,000 g for 10 min. The pellet was resuspended in 30 ml of Ringer/Hepes and passed through a 250 μm nylon mesh screen. […]
B. p97 accumulation in human brain capillaries. […] Accumulation of [^125I]-p97 was measured at 37° C. for 1 h in isolated human brain capillaries (100 μg/assay). […]

[8] = system: BBCEC monolayers; assay: Transcytosis across BBCEC monolayers (in vitro BBB model); assay type: cell-based, bovine
Text: FIG. 10 assesses the ability of several agents to interfere with p97 transyctosis. FIG. 10a, transcytosis of I125-P97 was compared in the presence of cold p97 (5 micromolar), Lf (5 micromolar), and Tf (5 micromolar). […] FIG. 10c, RAP, a known poly-peptide inhibitor of the LDL-Receptor family was applied to the cells (25 micrograms/ml).
FIG. 11 examines the accumulation and transcytosis of p97. FIG. 11a, of [^125I]-p97, [^125I]-BSA and [^125I]-holo-transferrin one hour after i.v. injection. The radioactivity in brain was compared between the three compounds. (n=3); FIG. 11b, Accumulation of p97 and transferrin into the mouse brain parenchyma. In situ brain perfusion was performed with human [^125I]-p97 or [^125I]-holo-transferrin at a final concentration of 10 nM via a catheter inserted in the right common carotid artery. The volume of distribution (VD) of [^125I]-proteins were obtained in the whole brain homogenate (white bars), in brain capillaries (solid bars) and in brain parenchyma (hatched bars) after isolation of the right hemisphere and capillary depletion. Results were obtained for p97 (n=10) and for holo-transferrin (n=6); FIG. 11c, Transcytosis of p97 across BBCEC monolayers. Transcytosis experiments were performed 37° C. (open circles) and 4° C. (closed circles) with BBCEC monolayers. [^125I]-p97 (1 mg/ml) was added to the upper side of the cell-covered filter. One representative experiment is shown (n=4); FIG. 11d, Preferential transport of p97 across the BBCEC monolayers. Apical-to-basal and basal-to-apical transport of [^125I]-p97 (25 nM) was measured for 2 hrs at 37° C. At the end of the experiment, [^125I]-p97 was assessed in the lower or upper chambers of each well by TCA precipitation (n=4).
FIG. 13 illustrates the transcytosis and accumulation of p97 and transferrin in BBCEC monolayers. FIG. 13a, Transcytosis experiments were performed at 37° C. (solid bars) or 4° C. (white bars). [^125I]-p97 or bovine [^125I]-holo-transferrin (1 mg/ml) was added to the upper side of the cell-covered filter. At the end of the experiment, radiolabelled proteins were measured in the lower chamber of each well by TCA precipitation (n=4). Controls were also performed at 37° C. with denatured [^125I]-p97 or bovine [^125I]-holo-transferrin boiled for 30 min (grey bars) (n=2); FIG. 13b, Biospecific interaction analysis was performed with native or boiled p97 for the indicated times. MAb L235 (5 μg) was immobilized on a sensor chip (SM5) using standard procedures incorporating NHS, EDC and ethanolamine. Native and boiled p97 (5 to 30 min) diluted at 1 mg/ml in Ringer/Hepes was cooled and injected into the BIAcore. The surface plasmon resonance response obtained for native p97 and boiled p97 was plotted (in relative units (RU)) as a function of time; FIG. 13c, The accumulation of both proteins into BBEC cells were also measured. Briefly, after incubation at 37° C. (solid bars) or 4° C. (white bars) with either [^125I]-protein, cells were washed four times with cold PBS. Accumulation of both denatured proteins (grey bars) was also measured at 37° C. Filters were then removed, and the radioactivity associated with the cells was quantified (n=3).
FIG. 14 illustrates the stability of p97 and integrity of the BBCEC monolayers following p97 transcytosis. FIG. 14a, Transcytosis experiments were performed at 37° C. and 4° C. by adding p97 (1 mg/ml) to the upper compartment. At the end of the experiment, 50 μl from each lower chamber was used for SDS-polyacrylamide gel electrophoresis. After electrophoresis, the gels were stained with Coomassie Blue. A standard curve was also made with known amounts of recombinant p97 (0-2 μg); FIG. 14b. The gels were dried and scanned to quantify the amount of intact p97 that crossed the BBCEC monolayers at 37° C. and 4° C. (n=3); FIG. 14c, Effect of p97 on sucrose permeability of BBCE cell monolayers co-cultured with astrocytes. […]

Megalin, sequence (P98164 26-4655, species assumed): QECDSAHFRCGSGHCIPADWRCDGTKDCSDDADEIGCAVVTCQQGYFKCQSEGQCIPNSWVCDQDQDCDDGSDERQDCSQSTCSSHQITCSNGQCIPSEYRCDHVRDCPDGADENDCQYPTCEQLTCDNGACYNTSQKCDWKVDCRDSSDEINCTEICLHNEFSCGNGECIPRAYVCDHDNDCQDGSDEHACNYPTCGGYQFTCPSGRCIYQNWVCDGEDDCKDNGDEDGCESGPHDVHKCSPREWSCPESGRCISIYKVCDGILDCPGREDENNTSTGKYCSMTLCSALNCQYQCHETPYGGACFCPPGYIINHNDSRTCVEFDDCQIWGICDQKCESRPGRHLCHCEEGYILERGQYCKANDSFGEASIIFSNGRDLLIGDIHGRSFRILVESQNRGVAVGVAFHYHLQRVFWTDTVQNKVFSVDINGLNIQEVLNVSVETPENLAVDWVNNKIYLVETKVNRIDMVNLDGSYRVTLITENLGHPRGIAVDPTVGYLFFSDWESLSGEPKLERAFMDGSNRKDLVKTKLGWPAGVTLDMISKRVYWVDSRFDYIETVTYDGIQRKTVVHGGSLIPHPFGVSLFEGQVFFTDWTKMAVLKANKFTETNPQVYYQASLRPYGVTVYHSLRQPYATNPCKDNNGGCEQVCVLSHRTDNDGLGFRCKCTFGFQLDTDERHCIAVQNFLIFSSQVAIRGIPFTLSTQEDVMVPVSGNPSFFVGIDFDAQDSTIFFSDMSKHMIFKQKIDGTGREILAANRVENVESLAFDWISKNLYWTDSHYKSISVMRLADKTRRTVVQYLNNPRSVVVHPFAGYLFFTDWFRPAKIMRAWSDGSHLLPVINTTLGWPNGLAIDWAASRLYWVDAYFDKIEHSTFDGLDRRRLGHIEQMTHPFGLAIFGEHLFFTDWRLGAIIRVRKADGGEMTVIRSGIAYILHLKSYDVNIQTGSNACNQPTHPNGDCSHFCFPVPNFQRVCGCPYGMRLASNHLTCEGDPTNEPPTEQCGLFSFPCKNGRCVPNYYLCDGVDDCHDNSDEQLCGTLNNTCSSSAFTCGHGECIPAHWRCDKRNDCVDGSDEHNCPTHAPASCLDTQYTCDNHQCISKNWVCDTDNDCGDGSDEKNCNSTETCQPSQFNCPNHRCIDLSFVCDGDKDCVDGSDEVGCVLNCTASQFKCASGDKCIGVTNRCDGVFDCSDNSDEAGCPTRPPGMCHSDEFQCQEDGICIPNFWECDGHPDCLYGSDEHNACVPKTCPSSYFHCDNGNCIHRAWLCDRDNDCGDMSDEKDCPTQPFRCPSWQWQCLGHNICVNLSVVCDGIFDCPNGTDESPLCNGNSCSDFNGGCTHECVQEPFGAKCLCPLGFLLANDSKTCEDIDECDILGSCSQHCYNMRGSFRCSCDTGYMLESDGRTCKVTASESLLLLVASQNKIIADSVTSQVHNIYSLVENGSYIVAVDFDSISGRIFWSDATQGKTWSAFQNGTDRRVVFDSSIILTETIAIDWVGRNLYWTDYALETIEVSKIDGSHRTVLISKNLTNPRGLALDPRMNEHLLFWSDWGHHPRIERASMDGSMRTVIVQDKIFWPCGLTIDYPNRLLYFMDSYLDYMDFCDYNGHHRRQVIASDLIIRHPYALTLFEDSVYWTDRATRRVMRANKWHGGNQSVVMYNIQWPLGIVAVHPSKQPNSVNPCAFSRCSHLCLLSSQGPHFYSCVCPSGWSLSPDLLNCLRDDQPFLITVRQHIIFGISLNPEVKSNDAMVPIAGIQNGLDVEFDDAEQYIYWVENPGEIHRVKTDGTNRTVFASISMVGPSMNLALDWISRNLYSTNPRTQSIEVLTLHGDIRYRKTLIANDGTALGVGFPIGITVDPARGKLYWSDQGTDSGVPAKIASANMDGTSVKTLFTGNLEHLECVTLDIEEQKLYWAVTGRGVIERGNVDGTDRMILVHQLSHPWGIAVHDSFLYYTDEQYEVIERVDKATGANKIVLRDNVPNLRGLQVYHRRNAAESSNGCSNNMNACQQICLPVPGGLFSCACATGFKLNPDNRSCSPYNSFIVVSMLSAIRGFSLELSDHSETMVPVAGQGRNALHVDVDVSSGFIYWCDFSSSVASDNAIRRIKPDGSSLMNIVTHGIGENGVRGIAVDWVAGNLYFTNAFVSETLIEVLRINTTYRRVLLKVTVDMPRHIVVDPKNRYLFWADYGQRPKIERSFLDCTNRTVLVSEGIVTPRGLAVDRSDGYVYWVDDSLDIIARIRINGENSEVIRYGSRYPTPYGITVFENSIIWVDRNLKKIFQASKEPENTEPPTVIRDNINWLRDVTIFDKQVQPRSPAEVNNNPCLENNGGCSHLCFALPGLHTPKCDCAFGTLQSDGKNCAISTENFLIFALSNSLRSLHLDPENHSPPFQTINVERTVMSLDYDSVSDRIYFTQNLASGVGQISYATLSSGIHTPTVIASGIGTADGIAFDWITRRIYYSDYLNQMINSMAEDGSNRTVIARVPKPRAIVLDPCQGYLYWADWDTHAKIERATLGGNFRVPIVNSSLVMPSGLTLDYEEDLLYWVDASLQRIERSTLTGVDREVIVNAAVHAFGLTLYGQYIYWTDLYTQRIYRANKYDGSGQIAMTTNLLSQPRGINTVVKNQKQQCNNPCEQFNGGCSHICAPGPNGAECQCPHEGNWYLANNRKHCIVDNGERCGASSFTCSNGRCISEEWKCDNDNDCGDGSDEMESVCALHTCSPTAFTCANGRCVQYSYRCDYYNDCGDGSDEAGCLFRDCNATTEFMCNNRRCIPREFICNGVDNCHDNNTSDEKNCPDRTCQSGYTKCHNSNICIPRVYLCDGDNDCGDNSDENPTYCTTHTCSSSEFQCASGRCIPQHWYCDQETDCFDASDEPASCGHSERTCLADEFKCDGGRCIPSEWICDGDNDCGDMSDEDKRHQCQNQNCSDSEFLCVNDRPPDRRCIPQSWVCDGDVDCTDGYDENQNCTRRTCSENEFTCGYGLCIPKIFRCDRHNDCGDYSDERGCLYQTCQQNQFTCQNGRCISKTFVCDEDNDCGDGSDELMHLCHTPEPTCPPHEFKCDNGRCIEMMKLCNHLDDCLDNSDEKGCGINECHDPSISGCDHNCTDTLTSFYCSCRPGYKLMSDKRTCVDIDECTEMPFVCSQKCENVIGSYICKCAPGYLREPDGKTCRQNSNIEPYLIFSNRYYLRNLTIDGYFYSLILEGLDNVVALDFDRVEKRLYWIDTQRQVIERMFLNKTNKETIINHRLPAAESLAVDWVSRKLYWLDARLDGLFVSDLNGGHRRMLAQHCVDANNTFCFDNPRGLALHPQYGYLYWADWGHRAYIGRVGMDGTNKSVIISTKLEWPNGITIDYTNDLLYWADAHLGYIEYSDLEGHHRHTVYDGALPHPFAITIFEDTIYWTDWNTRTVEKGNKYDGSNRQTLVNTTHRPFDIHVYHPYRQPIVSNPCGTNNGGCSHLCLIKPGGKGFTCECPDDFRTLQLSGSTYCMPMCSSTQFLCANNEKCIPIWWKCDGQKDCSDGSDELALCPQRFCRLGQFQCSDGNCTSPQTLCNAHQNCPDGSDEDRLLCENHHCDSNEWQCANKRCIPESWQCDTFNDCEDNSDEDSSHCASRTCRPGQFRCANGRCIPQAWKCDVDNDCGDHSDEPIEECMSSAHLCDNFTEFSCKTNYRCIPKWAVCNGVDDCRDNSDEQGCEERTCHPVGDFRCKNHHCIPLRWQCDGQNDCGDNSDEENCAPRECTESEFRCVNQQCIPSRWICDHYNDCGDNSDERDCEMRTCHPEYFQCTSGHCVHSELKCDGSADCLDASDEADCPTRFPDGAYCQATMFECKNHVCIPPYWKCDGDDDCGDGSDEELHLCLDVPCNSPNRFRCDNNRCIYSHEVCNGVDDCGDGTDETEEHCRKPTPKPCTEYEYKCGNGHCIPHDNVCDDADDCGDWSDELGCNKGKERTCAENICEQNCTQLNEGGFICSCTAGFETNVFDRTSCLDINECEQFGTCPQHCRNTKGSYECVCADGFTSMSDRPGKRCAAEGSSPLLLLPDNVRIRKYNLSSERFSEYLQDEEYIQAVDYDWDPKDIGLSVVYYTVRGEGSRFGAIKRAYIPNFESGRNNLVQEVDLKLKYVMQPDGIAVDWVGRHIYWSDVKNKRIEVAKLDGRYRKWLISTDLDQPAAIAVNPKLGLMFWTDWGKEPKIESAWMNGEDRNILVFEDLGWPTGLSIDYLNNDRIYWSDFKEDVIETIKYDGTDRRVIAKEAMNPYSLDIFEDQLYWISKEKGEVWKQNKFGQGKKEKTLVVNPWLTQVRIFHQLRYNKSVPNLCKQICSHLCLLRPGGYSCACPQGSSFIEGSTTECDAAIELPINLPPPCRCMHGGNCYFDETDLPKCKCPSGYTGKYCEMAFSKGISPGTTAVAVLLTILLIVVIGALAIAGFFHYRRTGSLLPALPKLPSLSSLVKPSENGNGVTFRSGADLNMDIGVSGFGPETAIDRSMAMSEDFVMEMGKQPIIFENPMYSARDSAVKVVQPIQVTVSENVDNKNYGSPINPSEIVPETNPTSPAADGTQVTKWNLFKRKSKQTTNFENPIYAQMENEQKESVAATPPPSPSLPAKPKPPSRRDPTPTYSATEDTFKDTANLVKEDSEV

Substance	Binding to LRP [1]	Binding to Megalin [2]	other results
Activated α2-macroglobulin: activated α2-macroglobulin	Yes	No	
Albumin		Yes	
ApoB100: apolipoprotein B 100		Yes	Binding to LDL-R [3]: Yes
ApoE: Apolipoprotein E	Yes	Yes	Binding to VLDL-R [4]: Yes; Binding to ER-2 [5]: Yes; Binding to LR11 [6]: Yes
ApoJ/clusterin: ApoJ/clusterin		Yes	
Gentamycin [reference compound]	Yes	Yes	
Plasminogen: plasminogen		Yes	
Polymixin B [reference compound]	Yes	Yes	
Pseudomonas Exotoxin A	Yes	No	
Thrombospondin-1: thrombospondin-1	Yes		Binding to VLDL-R [4]: Yes
Thyroglobulin: thyroglobulin		Yes	Binding to ER-2 [5]: Yes; Binding to LR11 [6]: Yes
Tissue factor inhibitor: tissue factor inhibitor	Yes		
human holo-transferrin: human holo-transferrin			Inhibition of the uptake of [125I]-p97 into isolated human brain capillaries ([7]; 50-fold molar excess, [125I]-p97 100 nM, 1 h at 37° C. (FIG. 16a)): had no effect; Reduction of apical-to-basal transport of [125I]-p97 ([8]; 200-fold molar excess of competitor, [125I]-p97 25 nM (FIG. 15a, 15b)): had no impact
tPA: tissue type plasminogen activator	Yes	Yes	
α1-chymotrypsin/cathepsin G: protease/inhibitor complex	No	Yes	
β-amyloid peptide 1-40: β-amyloid peptide 1-40 [reference compound]			Competition with p97 for receptor binding in human brain capillaries, repeat experiment ([7]; performed identically to FIG. 5 (FIG. 6)): competes with p97 for receptor binding; Effect on transcytosis of 125I-p97 ([8]; competitor 5 micromolar (FIG. 10a, 10b)): failed to slow or reduce
βAPP: β-amyloid precursor protein	Yes		Binding to VLDL-R [4]: Yes
